Here are results for four molecules from publication PMC4368505 (Nature, 2015).

The labels stand for the following.
B1: Drosophila Orc1 (amino acid residues 533-924) of the trimmed ORC core (domain or fragment, UniProt O16810 533-924, looked up)
chain: SPSMQQRTDLPAKDSSKSELQLAREQLHVSVVPKSLPCREREFENIYAFLEGKIQDQCGGCMYVSGVPGTGKTATVTGVIRTLQRMAKQNELPAFEYLEINGMRLTEPRQAYVQIYKQLTGKTVSWEQAHALLEKRFTTPAPRRVTTVLLVDELDILCNRRQDVVYNLLDWPTKSAAKLVVVTIANTMDLPERLLMGKVTSRLGLTRLTFQPYSHKQLQEIVTARLGGSETFKGEAVQLVARKVAAVSGDARRALDICRRATEIADTAAVKCVTMLHVQQALAEMIASAKVQAIRNCSRMEQIFLQAIAAEVTRTGVEETTFMGVYQQVETIAAFMGVTFPPPGRALRLCSKLGAERLIISEHSRNDLFQKILLNVSADDIHYALRVEEMVN
B2: Drosophila Orc4 (amino acid residues 1-459) (natural protein, UniProt Q9W102 1-459, looked up)
chain: MPEADRELVSIRRFLKERLQRDYTTLRGYAKERSNVRLLLQRTAEMGESNSLLLLGPRGSGKTTLINSVLADLLPNKSFGENTLIVHLDGNLHTDDRVALKSITVQMQLENAADGKVFGSFAENLAFLLQCLKAGGKHSKSVIFILEEFDLFCAHHNQTLLYNLFDVSQSAQAPICVLGVTCRLDVIELLEKRVKSRFSHRQVFLFPSLRRFEDYVDLCRDLLSLPTGNSLLLAAEKIYNLQNIQSGALYFSRNHFDPGEYGFSPRLRDAWNKQICKVLATQQARSTLQALHDFDISEAYLKNFLFRLVAHLRPQSPHITAEKMAAVGSQFEGDDKIELLCGLSVLELCLIIAIKHHSQIYDRDSFNFEIIYARFSKFAKVSTTMQAVERSIVLKAFEHLRIAELIMPLTGGAGGGVGKVQKEFEMHKLALTYSQIHHCMQRYQALPTEVAQWAQSSLI
B3: Drosophila Orc5 (amino acid residues 1-460) (natural protein, UniProt Q24169 1-460, looked up)
chain: MEAICSSLEPLFPCREAAIETLGELIGDSSETYPSAIYLFGHSGTGKTALTRAFLKECGKRQNVRTAHLNAIECYTTKIMLEILLDSLAPDQGDALKVDNMLDFVEQLRRQAATRVEDQGFLIAVDNAERLRDMDANVLPVLLRLQELTNLNLCVILLSQLPFEKFYNKTGLSEIVCLHLAQYNKAETQRILGSDFQQVRNQLLEQFAQDKKRLEICQEAVTEDFYNNYLNLFLSVFYKACRDVPELQLTARKCLSTYLEPVLDGTVDATDISRLWRHIAGPLRSALTQIYMRIEKPAEEVEDFTAIEDQSVRKLAQSLELPYYAKFLLIAAFLASHNAAKQDKRLFVKHHGKQRKRMQTVNARAKTTEKMSTTLGPKSFSIDRLLAIFYAILEEKVGLTCNLLSQISTLVHLNLLSFVSGEQNIMEGSARLQCTIGLEFVLQIGKVVGFNVRQYLCDFM
B4: Drosophila Orc2 (amino acid residues 266-618) of the trimmed ORC core (domain or fragment, UniProt Q24168 266-618, looked up)
chain: QSARAKKSNEFVPESDGYFHSHASSKILTSDHTLDRLKNPRLAADRVFSLLSEIKTSAEHEGSINAIMEEYRSYFPKWMCILNEGFNILLYGLGSKHQLLQSFHREVLHKQTVLVVNGFFPSLTIKDMLDSITSDILDAGISPANPHEAVDMIEEEFALIPETHLFLIVHNLDGAMLRNVKAQAILSRLARIPNIHLLASIDHINTPLLWDQGKLCSFNFSWWDCTTMLPYTNETAFENSLLVQNSGELALSSMRSVFSSLTTNSRGIYMLIVKYQLKNKGNATYQGMPFRDLYSSCREAFLVSSDLALRAQLTEFLDHKLVKSKRSVDGSEQLTIPIDGALLQQFLEEQEKK

Holding throughout (test): crystal structure
Assay [1] has as its target B2.
The target of assay [2] is T1, Drosophila Orc3 (amino acid residues 47-721) of the trimmed ORC core (Drosophila, UniProt Q7K2L1 47-721).
T1 sequence (looked up): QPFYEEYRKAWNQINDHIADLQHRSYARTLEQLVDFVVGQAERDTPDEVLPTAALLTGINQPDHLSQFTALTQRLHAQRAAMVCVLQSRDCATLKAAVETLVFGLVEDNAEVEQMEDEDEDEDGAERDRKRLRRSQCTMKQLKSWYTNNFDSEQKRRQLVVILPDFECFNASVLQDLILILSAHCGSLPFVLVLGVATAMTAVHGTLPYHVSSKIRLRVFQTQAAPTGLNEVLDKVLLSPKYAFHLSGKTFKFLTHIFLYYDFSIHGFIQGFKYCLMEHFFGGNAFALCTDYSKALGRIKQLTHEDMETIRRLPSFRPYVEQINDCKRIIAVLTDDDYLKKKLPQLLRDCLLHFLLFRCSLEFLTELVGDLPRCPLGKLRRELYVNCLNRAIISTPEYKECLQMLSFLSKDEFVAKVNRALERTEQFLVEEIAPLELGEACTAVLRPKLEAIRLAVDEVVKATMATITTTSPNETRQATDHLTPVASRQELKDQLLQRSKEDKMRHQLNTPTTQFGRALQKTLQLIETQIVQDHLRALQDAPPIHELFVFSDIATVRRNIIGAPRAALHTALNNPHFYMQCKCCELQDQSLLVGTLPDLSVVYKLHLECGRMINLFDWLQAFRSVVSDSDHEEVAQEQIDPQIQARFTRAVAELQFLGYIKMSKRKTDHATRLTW

For assay [3], the target named is B3.
The target of assay [4] is B1.

Regarding B1, the binding result in assay [1] and in assay [2] was “binds” each time.

Take B2: the binding result in assay [3] was “binds”. Consider B3, for which the binding result in assay [2] was “binds”. With B4, the binding result in assay [4] and in assay [2] was “binds” throughout.
